Molecular target: CPn0677-His (recombinant full-length CPn0677 with C-terminal 10His tag) (Chlamydia pneumoniae GiD)
Experiment: SEC; Superdex 200 Increase 10/300 GL, 4 °C, 0.5 ml/min, 5.2 mg CPn0677 (5 mg/ml) in PBS pH 6.0, against standard proteins

Substance: CPn0677-His (recombinant full-length CPn0677 with C-terminal 10His tag) (natural protein)
- stoichiometry N: 2
